Experimental data taken from paper PMC3565045.

Molecular target: Cryptococcus neoformans acetate kinase (Cryptococcus neoformans)
Assay: crystal structure

stoichiometry N: 2
Substance: Cryptococcus neoformans acetate kinase (enzyme)
